Data as given in patent publication US20190135918A1 (ICHNOS SCIENCES, published 2019).

Assays:
[1] = molecular target: T1, human CD3 epsilon 1-26_Fc fusion protein (human); assay: SPR, human IgG1 format, graded relative to chimeric SP34; one grade for human and cynomolgus protein
T1 construct: also called human CD3 1-26_Fc fusion protein

[2] = molecular target: T2, cynomolgus monkey CD3 epsilon 1-26_Fc fusion protein (cynomolgus monkey); assay: as above
T2 construct: also called cynomolgus CD3 epsilon 1-26 Fc fusion protein

Row | Binder | binding result [1] | binding result [2]
1 | VH1/VL2 (antibody, human IgG1, kappa, IgG1; SP34 series; copies: 2 + 2) heavy: not shown light: EAVVTQSPATLSVSPGERATLSCRSSTGAVTTSNYANWVQEKPGQAFRGLIGGANKRAPGVPARFSGSLSGDEATLTISSLQSEDFAVYFCALWYSNLWVFGQGTKLEIKRTVAAPSVFIFPPSDEQLKSGTASVVCLLNNFYPREAKVQWKVDNALQSGNSQESVTEQDSKDSTYSLSSTLTLSKADYEKHKVYACEVTHQGLSSPVTKSFNRGEC | binds | binds
2 | VH1/VL19 (antibody, human IgG1, kappa, V domains shown, IgG1; also called humanized SP34 VH1/VL19 antibody; copies: 2 + 2) VH: EVQLVESGGGLVQPGGSLRLSCAASGFTFNTYAMNWVRQAPGKGLEWVARIRSKYNNYATYYADSVKGRFTISRDDSKNTLYLQMNSLRAEDTAVYYCVRHGNFGNSYVSWFAYWGQGTTVTVSS VL: EIVVTQSPATLSVSPGERATLSCRSSTGAVTTSNYANWVQEKPGQAFRGLIGGANKRAPGVPARFSGSLSGTEATLTISSLQSEDFAVYYCALWYSNLWVFGQGTKLEIKR | binds | binds
3 | VH1/VL8 (antibody, human IgG1, kappa, V domains shown, IgG1; also called humanized SP34 VH1/VL8 antibody; copies: 2 + 2) VH: EVQLVESGGGLVQPGGSLRLSCAASGFTFNTYAMNWVRQAPGKGLEWVARIRSKYNNYATYYADSVKGRFTISRDDSKNTLYLQMNSLRAEDTAVYYCVRHGNFGNSYVSWFAYWGQGTTVTVSS VL: EAVVTQSPATLSVSPGERATLSCRSSTGAVTTSNYANWVQEKPGQAFRGLIGGANKRAPGVPARFSGSGSGDEATLTISSLQSEDFAVYFCALWYSNLWVFGQGTKLEIKR | binds | binds
4 | VH1/VL5 (antibody, human IgG1, kappa, IgG1; also called humanized SP34 VH1/VL5 antibody; copies: 2 + 2) heavy: not shown light: EIVVTQSPATLSVSPGERATLSCRSSTGAVTTSNYANWVQEKPGQAFRGLIGGANKRAPGVPARFSGSLSGDEATLTISSLQSEDFAVYFCALWYSNLWVFGQGTKLEIKRTVAAPSVFIFPPSDEQLKSGTASVVCLLNNFYPREAKVQWKVDNALQSGNSQESVTEQDSKDSTYSLSSTLTLSKADYEKHKVYACEVTHQGLSSPVTKSFNRGEC | binds | binds
5 | VH1/VL14 (antibody, human IgG1, kappa, V domains shown, IgG1; also called humanized SP34 VH1/VL14 antibody; copies: 2 + 2) VH: EVQLVESGGGLVQPGGSLRLSCAASGFTFNTYAMNWVRQAPGKGLEWVARIRSKYNNYATYYADSVKGRFTISRDDSKNTLYLQMNSLRAEDTAVYYCVRHGNFGNSYVSWFAYWGQGTTVTVSS VL: EAVVTQSPATLSVSPGERATLSCRSSTGAVTTSNYANWVQEKPGQAFRLLIGGANKRAPGVPARFSGSLSGDEATLTISSLQSEDFAVYFCALWYSNLWVFGQGTKLEIKR | no binding (tested: not printed) | no binding (tested: not printed)
6 | VH1/VL15 (antibody, human IgG1, kappa, V domains shown, IgG1; also called humanized SP34 VH1/VL15 antibody; copies: 2 + 2) VH: EVQLVESGGGLVQPGGSLRLSCAASGFTFNTYAMNWVRQAPGKGLEWVARIRSKYNNYATYYADSVKGRFTISRDDSKNTLYLQMNSLRAEDTAVYYCVRHGNFGNSYVSWFAYWGQGTTVTVSS VL: EAVVTQSPATLSVSPGERATLSCRSSTGAVTTSNYANWVQQKPGQAFRGLIGGANKRAPGVPARFSGSLSGDEATLTISSLQSEDFAVYFCALWYSNLWVFGQGTKLEIKR | binds | binds
7 | VH1/VL17 (antibody, human IgG1, kappa, IgG1; also called humanized SP34 VH1/VL17 antibody; copies: 2 + 2) heavy: not shown light: EIVVTQSPATLSVSPGERATLSCRASTGAVTTSNYANWVQEKPGQAFRGLIGGANKRAPGVPARFSGSLSGDEATLTISSLQSEDFAVYFCALWYSNLWVFGQGTKLEIKRTVAAPSVFIFPPSDEQLKSGTASVVCLLNNFYPREAKVQWKVDNALQSGNSQESVTEQDSKDSTYSLSSTLTLSKADYEKHKVYACEVTHQGLSSPVTKSFNRGEC | binds | binds
8 | humanized SP34 prototype antibody VH1/VL1 (antibody, human IgG1, kappa, Human IgG1; Printed as 'variable heavy chain and light chain') VH: not shown VL: EAVVTQSPATLSVSPGERATLSCRSSTGAVTTSNYANWVQEKPGQAFRGLIGGANKRAPGVPARFSGSLSGDEATLTISSLQSEDFAVYFCQLWYSNLWVFGQGTKLEIKRTVAAPSVFIFPPSDEQLKSGTASVVCLLNNFYPREAKVQWKVDNALQSGNSQESVTEQDSKDSTYSLSSTLTLSKADYEKHKVYACEVTHQGLSSPVTKSFNRGEC | binds | binds
9 | VH1/VL22 (antibody, human IgG1, kappa, V domains shown, IgG1; also called humanized SP34 VH1/VL22 antibody; copies: 2 + 2) VH: EVQLVESGGGLVQPGGSLRLSCAASGFTFNTYAMNWVRQAPGKGLEWVARIRSKYNNYATYYADSVKGRFTISRDDSKNTLYLQMNSLRAEDTAVYYCVRHGNFGNSYVSWFAYWGQGTTVTVSS VL: EIVVTQSPATLSVSPGERATLSCRSSTGAVTTSNYANWVQQKPGQAFRGLIGGANKRAPGVPARFSGSLSGDEATLTISSLQSEDFAVYYCALWYSNLWVFGQGTKLEIKR | binds | binds
10 | VH1/VL10 (antibody, human IgG1, kappa, IgG1; also called humanized SP34 VH1/VL10 antibody; copies: 2 + 2) heavy: not shown light: EAVVTQSPATLSVSPGERATLSCRSSTGAVTTSNYANWVQEKPGQAFRGLIGGANKRAPGVPARFSGSLSGDEATLTISSLQSEDFAVYYCALWYSNLWVFGQGTKLEIKRTVAAPSVFIFPPSDEQLKSGTASVVCLLNNFYPREAKVQWKVDNALQSGNSQESVTEQDSKDSTYSLSSTLTLSKADYEKHKVYACEVTHQGLSSPVTKSFNRGEC | binds | binds
11 | VH1/VL12 (antibody, human IgG1, kappa, IgG1; also called humanized SP34 VH1/VL12 antibody; copies: 2 + 2) heavy: not shown light: EAVVTQSPATLSVSPGERATLSCRSSTGAVTTSNYANWVQEKPGQAFRGLIGGANKRAPGVPARFSGSLSGTEATLTISSLQSEDFAVYFCALWYSNLWVFGQGTKLEIKRTVAAPSVFIFPPSDEQLKSGTASVVCLLNNFYPREAKVQWKVDNALQSGNSQESVTEQDSKDSTYSLSSTLTLSKADYEKHKVYACEVTHQGLSSPVTKSFNRGEC | binds | binds
12 | VH1/VL11 (antibody, human IgG1, kappa, V domains shown, IgG1; also called humanized SP34 VH1/VL11 antibody; copies: 2 + 2) VH: EVQLVESGGGLVQPGGSLRLSCAASGFTFNTYAMNWVRQAPGKGLEWVARIRSKYNNYATYYADSVKGRFTISRDDSKNTLYLQMNSLRAEDTAVYYCVRHGNFGNSYVSWFAYWGQGTTVTVSS VL: EAVVTQSPATLSVSPGERATLSCRSSTGAVTTSNYANWVQEKPGQAFRGLIGGANKRAPGVPARFSGSGSGTEATLTISSLQSEDFAVYFCALWYSNLWVFGQGTKLEIKR | binds | binds
13 | VH1/VL21 (antibody, human IgG1, kappa, IgG1 format of the variable domains of m38; also called humanized SP34 VH1/VL21 antibody (IgG1 format); H1L21 IgG1; copies: 2 + 2) heavy: not shown light: EIVVTQSPATLSVSPGERATLSCRSSTGAVTTSNYANWVQEKPGQAFRGLIGGANKRAPGVPARFSGSLSGDEATLTISSLQSEDFAVYYCALWYSNLWVFGQGTKLEIKRTVAAPSVFIFPPSDEQLKSGTASVVCLLNNFYPREAKVQWKVDNALQSGNSQESVTEQDSKDSTYSLSSTLTLSKADYEKHKVYACEVTHQGLSSPVTKSFNRGEC | binds | binds
14 | VH1/VL6 (antibody, human IgG1, kappa, V domains shown, IgG1; also called humanized SP34 VH1/VL6 antibody; copies: 2 + 2) VH: EVQLVESGGGLVQPGGSLRLSCAASGFTFNTYAMNWVRQAPGKGLEWVARIRSKYNNYATYYADSVKGRFTISRDDSKNTLYLQMNSLRAEDTAVYYCVRHGNFGNSYVSWFAYWGQGTTVTVSS VL: EAVVTQSPATLSVSPGERATLSCRSSTGAVTTSNYANWVQEKPGQAPRGLIGGANKRAPGVPARFSGSLSGDEATLTISSLQSEDFAVYFCALWYSNLWVFGQGTKLEIKR | binds | binds
15 | VH1/VL18 (antibody, human IgG1, kappa, IgG1; also called humanized SP34 VH1/VL18 antibody; copies: 2 + 2) heavy: not shown light: EIVVTQSPATLSVSPGERATLSCRSSTGAVTTSNYANWVQEKPGQAFRGLIGGANKRAPGVPARFSGSLSGDEATLTISSLQSEDFAVYFCALWYSNLWVFGGGTKLEIKRTVAAPSVFIFPPSDEQLKSGTASVVCLLNNFYPREAKVQWKVDNALQSGNSQESVTEQDSKDSTYSLSSTLTLSKADYEKHKVYACEVTHQGLSSPVTKSFNRGEC | binds | binds
16 | VH1/VL16 (antibody, human IgG1, kappa, IgG1; also called humanized SP34 VH1/VL16 antibody; copies: 2 + 2) heavy: not shown light: EIVVTQSPATLSVSPGERATLSCRSSTGAVTTSNYANWVQEKPGQAFRGLIGGANKRAPGVPARFSGSLSGTEATLTISSLQSEDFAVYFCALWYSNLWVFGQGTKLEIKRTVAAPSVFIFPPSDEQLKSGTASVVCLLNNFYPREAKVQWKVDNALQSGNSQESVTEQDSKDSTYSLSSTLTLSKADYEKHKVYACEVTHQGLSSPVTKSFNRGEC | binds | binds
17 | VH1/VL13 (antibody, human IgG1, kappa, IgG1; also called humanized SP34 VH1/VL13 antibody; copies: 2 + 2) heavy: not shown light: EAVVTQSPATLSVSPGERATLSCRASTGAVTTSNYANWVQEKPGQAFRGLIGGANKRAPGVPARFSGSLSGDEATLTISSLQSEDFAVYFCALWYSNLWVFGQGTKLEIKRTVAAPSVFIFPPSDEQLKSGTASVVCLLNNFYPREAKVQWKVDNALQSGNSQESVTEQDSKDSTYSLSSTLTLSKADYEKHKVYACEVTHQGLSSPVTKSFNRGEC | binds | binds
18 | Chimeric SP34 (antibody, human IgG1, kappa, V domains shown, IgG1; also called chimeric SP34 antibody; SP34 chimera) VH: EVQLVESGGGLVQPKGSLKLSCAASGFTFNTYAMNWVRQAPGKGLEWVARIRSKYNNYATYYADSVKDRFTISRDDSQSILYLQMNNLKTEDTAMYYCVRHGNFGNSYVSWFAYWGQGTLVTVSA VL: QAVVTQESALTTSPGETVTLTCRSSTGAVTTSNYANWVQEKPDHLFTGLIGGTNKRAPGVPARFSGSLIGDKAALTITGAQTEDEAIYFCALWYSNLWVFGGGTKLTVLR | binds | binds
19 | VH1/VL3 (antibody, IgG1; SP34 series; also called humanized SP34 VH1/VL3 antibody; copies: 2 + 2) heavy: not shown light: EAVVTQSATLSVSPGERATLSCRSSTGAVTTSNYANWVQEKPGQAFRGLIGGANKRAPGVPARFSGSLSGDEATLTISSLQSEDFAVYFCQLWYSNLWVFGQGTKLEIKRTVAAPSVFIFPPSDEQLKSGTASVVCLLNNFYPREAKVQWKVDNALQSGNSQESVTEQDSKDSTYSLSSTLTLSKADYEKHKVYACEVTHQGLSSPVTKSFNRGEC | no binding (tested: not printed) | no binding (tested: not printed)
